Data: patent US10961298 (GOVERNMENT OF THE UNITED STATES AS REPRESENTED BY THE …, dated 2021)

What was measured:
[1] = molecular target: T1, Hcp (hemolysin co-regulated protein, T6SS needle protein) of Acinetobacter baumannii AB5075, recombinant, … (Acinetobacter baumannii (strain AB5075)); test: screening of hybridoma clones for binding to Hcp antigen
T1 construct: Cloned NcoI/XhoI into pET22b, overexpressed in E. coli and purified on a nickel column; also called full-length Hcp protein; purified Hcp protein
T1 chain: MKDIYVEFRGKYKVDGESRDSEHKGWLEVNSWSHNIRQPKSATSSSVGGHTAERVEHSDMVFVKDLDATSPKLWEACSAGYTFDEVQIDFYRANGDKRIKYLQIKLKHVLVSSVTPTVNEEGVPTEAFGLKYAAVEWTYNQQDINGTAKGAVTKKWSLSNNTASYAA

[2] = molecular target: T2, Hcp peptide IKYLQIKLKHVLVSS (Acinetobacter baumannii); test: peptide ELISA, peptide on plate, anti-mouse HRP, OD450
T2 peptide: IKYLQIKLKHVLVSS

[3] = molecular target: T3, Hcp peptide LKHVLVSSVTPTVNE (Acinetobacter baumannii); test: as above
T3 peptide: LKHVLVSSVTPTVNE

[4] = molecular target: T4, Hcp peptide HTAERVEHSDMVFVK (Acinetobacter baumannii); test: as above
T4 peptide: HTAERVEHSDMVFVK

[5] = molecular target: T5, Hcp peptide VNSWSHNIRQPKSAT (Acinetobacter baumannii); test: as above
T5 peptide: VNSWSHNIRQPKSAT

[6] = molecular target: T6, Hcp peptide AKGAVTKKWSLSNNT (Acinetobacter baumannii); test: as above
T6 peptide: AKGAVTKKWSLSNNT

[7] = molecular target: T7, Hcp peptide EEGVPTEAFGLKYAA (Acinetobacter baumannii); test: as above
T7 peptide: EEGVPTEAFGLKYAA

[8] = molecular target: T8, Hcp peptide SVTPTVNEEGVPTEA (Acinetobacter baumannii); test: as above
T8 peptide: SVTPTVNEEGVPTEA

[9] = molecular target: T9, Hcp peptide #1 MKDIYVEFRGKYKVD (Acinetobacter baumannii); test: as above
T9 construct: also called amino terminus peptide; N-terminus peptide
T9 peptide: MKDIYVEFRGKYKVD

[10] = molecular target: T10, Hcp peptide RANGDKRIKYLQIKL (Acinetobacter baumannii); test: as above
T10 peptide: RANGDKRIKYLQIKL

[11] = molecular target: T11, Hcp peptide SAGYTFDEVQIDFYR (Acinetobacter baumannii); test: as above
T11 peptide: SAGYTFDEVQIDFYR

[12] = molecular target: T12, Hcp peptide TSSSVGGHTAERVEH (Acinetobacter baumannii); test: as above
T12 peptide: TSSSVGGHTAERVEH

[13] = molecular target: T13, Hcp peptide FRGKYKVDGESRDSE (Acinetobacter baumannii); test: as above
T13 peptide: FRGKYKVDGESRDSE

[14] = molecular target: T14, Hcp peptide HSDMVFVKDLDATSP (Acinetobacter baumannii); test: as above
T14 peptide: HSDMVFVKDLDATSP

[15] = molecular target: T15, Hcp peptide AVEWTYNQQDINGTA (Acinetobacter baumannii); test: as above
T15 peptide: AVEWTYNQQDINGTA

[16] = molecular target: T16, Hcp peptide KWSLSNNTASYAA (Acinetobacter baumannii); test: as above
T16 peptide: KWSLSNNTASYAA

[17] = molecular target: T17, Hcp peptide EHKGWLEVNSWSHN (Acinetobacter baumannii); test: as above
T17 peptide: EHKGWLEVNSWSHN

[18] = molecular target: T18, Hcp peptide QQDINGTAKGAVTKK (Acinetobacter baumannii); test: as above
T18 peptide: QQDINGTAKGAVTKK

[19] = molecular target: T19, Hcp peptide EVQIDFYRANGDKRI (Acinetobacter baumannii); test: as above
T19 peptide: EVQIDFYRANGDKRI

[20] = molecular target: T20, Hcp peptide DGESRDSEHKGWLEV (Acinetobacter baumannii); test: as above
T20 peptide: DGESRDSEHKGWLEV

[21] = molecular target: T21, Hcp peptide IRQPKSATSSSVGGH (Acinetobacter baumannii); test: as above
T21 peptide: IRQPKSATSSSVGGH

[22] = molecular target: T22, Hcp peptide PKLWEACSAGYTFDE (Acinetobacter baumannii); test: as above
T22 peptide: PKLWEACSAGYTFDE

[23] = molecular target: T23, Hcp peptide KDLDATSPKLWEACS (Acinetobacter baumannii); test: as above
T23 peptide: KDLDATSPKLWEACS

[24] = molecular target: T24, Hcp peptide AFGLKYAAVEWTYNQ (Acinetobacter baumannii); test: as above
T24 peptide: AFGLKYAAVEWTYNQ

B1: 13F7 anti-Hcp monoclonal antibody (antibody, V domains shown)
VH: EVQLQESGGGLVQPGGSMKLSCVVSGFIFSSYWMSWVRQSPEKGLEWLAEIRLKSDNYVTLYAESVKGKFTISRDDSKSRLFLQMNTLRAEDTGIYYCTRSYHALDYWGQGTSVTVSS
VL: DIVMAQSPSSLNVSAGDKVTMSCKSSQSLLNSGNQRNYLAWYQQKPGQPPKLLIYGASTRESGVPDRFTGSGSGTDFTLTISSVQAEDLAVYYCQNDHIYPFTFGSGTKLEIK
notes: Mouse monoclonal antibody from a hybridoma; also called αHcp; 13F7 αHcp antibody
binding result [1]: binds
binding result [2]: no binding
binding result [3]: no binding
binding result [4]: no binding
binding result [5]: no binding
binding result [6]: no binding
binding result [7]: no binding
binding result [8]: no binding
binding result [9]: binds
binding result [10]: no binding
binding result [11]: no binding
binding result [12]: no binding
binding result [13]: no binding
binding result [14]: no binding
binding result [15]: no binding
binding result [16]: no binding
binding result [17]: no binding
binding result [18]: no binding
binding result [19]: no binding
binding result [20]: no binding
binding result [21]: no binding
binding result [22]: no binding
binding result [23]: no binding
binding result [24]: no binding
